The results in this text go back to PMC5389482.

The data set relates to ParF (plasmid TP228 (segregation module)). Description: fluorescence polarization. The note with it: 5 mM ATP, 5 mM Mg acetate, 150 mM K glutamate; 150 mM potassium glutamate (50-350 mM in salt series), pH 7.5, 5 mM magnesium acetate, 5 mM ATP or ADP, 25 C, 1 nM DNA.

As to “AATTACTCAATTACTCAATT (double strand) [20-mer]”, the dissociation constant (Kd) was 156 nM.

As usually defined, the Kd is the equilibrium constant for the complex coming apart.
